Test results as given in article PMC4579573, “Higher -Order Assembly of BRCC36–KIAA0157 Is Required for DUB Activity and Biological Function” (Molecular cell, 2015).

B1: zebrafish BRISC complex (complex)
chain 1: MAVNAVHLESDAFLVCMNHALSTEKEEVMGLCIGEVDTNRIVHIHSVIILRRSDKRKDRVEISPEQLSAASTEAERLAEMTGRPMRVVGWYHSHPHITVWPSHVDVRTQAMYQMMDQGFVGLIFSCFIEDKNTKTGRVLYTCFQSVQAQKGSEYERIEIPIHVVPHEAIGKVCLESAVELPRILCQEEQDTYRRIHSLTHLDPITKIHNGSVFTKNLCSQMSAISGPLLQWLEDRLEQNKQSIITLQKEKELLTQELAAL
chain 2: not shown
chain 3: MNSLSPELALSRISPELRPLLCSIVRNGRVGLDSSSCLRITDLKSGCTSLMPGPCCDRFKLHIPYAGETLKWDIIFNARDPELPPDFIFGEDADFLPEPSELPNLVSWDSGKPECLLLLVKEMLQQYHQYQCQRLRDSSRLLFEYDSLLEDPNYGRNMEIYAGRKNSWTGEFSARFLLKLPVDFSNIPIYLLKDTALDPGEDVALLSVSFEDAEATQVFPKLYLSPSIEHALGGSSALHIPAFPSGGCLIDYVPQVCQLLTNKVQYVIQGYHKRREYIAAFLSHFGMGVVEYDAVGFTKLTLLLMWKDFCFLVHVDLPLYFPRDQPTLTFQSIYHFTSSGQLYSQVQKSYPYSPRWDGNEMAKRAKAYFKSFIPQFQEGAFANGKL
chain 4: METTEPGQADGEERMMDLRPRTRSNPEGAEDRRSSTGSLNSSLPSAPQPAVGSRVEGEGEAASSDSPPVSATAIAATASVPVAAVGNTTTTNTASLPAMSPAVKERPKPSQPTMPTQIPPSAELHLRAPRVNCPEKVIICLDLSEEMSLQKLESINGSKTNALNISQKMIEMFVRTKHKIDKRHEFALVVVNDDAMWLSGFTSDPRELCSCLYDLETNVCESFNLEDLFNVILQKIELPQMENIQTIPPPFVVRTLLVFSRHAGMLQFNPSDAVKKMLQSPYFFFDVVFLHNGTEEQTEDTSWKDVYASFCELDTKGMCYRFEVSLCGPAIELHNCMAKLLCHPLQRPFQSHASYSLLEDEDTLENEATV
B2: Dr BRCC36–KIAA0157 binary complex (complex)
chain 1: B1 chain 1
chain 2: not shown
B3: C. floridanus BRISC complex (complex)
chain 1: MDDSSLQKVELQTDVYMVCLQHALSTENFEVMGLLIGNFACGIAKISAVIILRRLDKKKDRVEISSEQLLKAAAEAERLTVELNRPMRVLGWYHSHPHITVCPSHVDVRTQATYQTMDHSFVGLIFSVFSEGKESKEHEIFLNCFQSDNGEATEIPLEIVHTPDISDRCLRTMTDLSKILVQEEEDMAEACKDHPDVLASIHNNAVRTRALIHITDIITKPLVQTFEKRIALNKLRATHLQRQLQELQKMCNG
chain 2: MADSDLLVTISGAALSLLFFENVRSVGNQMGFLLGEALEFIVKTYTDSDNQVETVKIHINVEAIVTCPLADLLHDSTNHINKEKLKDFVRDKSKQVIGWFCFRRNTTNLTLTLKDKLLHKQFASHFSGVNGCKEDFFLTCLLNASTSETSGTHKFRHVFLRHNKRGMFEPISLKINNLGDDASRHDGSDYKPTPVRKSTRTPDSFTKLIESLNLDVARIDGLDSAMLIQKAAEHHLMSLIPKVCESDLEVAELEKQVHELKIKIATQQLAKRLKINGENCDRISKASKDNCFSEKIDSSKKNEVRIGDDACLQREHIPSCTQSVGPNNRTVCRNTAACIAKSAEKSRRAGRSNLQESGNQQQETQNFFTNSRRSIPEIATESICQEGSEISMGRGRGSGRGSHEFTPGMKKIRRTPGTSHMHSSRERSTTPPEQDFSDAECPISSPVLRSYSQVTKKTNLDKCNSMAPLDI
chain 3: MLNQQHPLLSTIDSYIEPLLKRVLQTKRLGVCCGLIKLDSVSSSCNKSKNDCFKLSIPYAGEHLVWSVLFDSQYPEMGPDFIFNDQSFLADPDINTLSTWIPSLTKWNPNDIDALLNVLSELLLYYKEHQLHLLGKQGDRLQFEYSTLVGETEISREDIEVIMLPLGTKPTEARFLIRIVMDYSRLPPRINKSQNDEAMLIIMFYGPDWNRIIPQLYLSKTLEDIFGGPESLHIPPFPSSKYLMDYVPEVKKFIDEKIHNVVQSFESRKSFITVLIVSQRGSILEYDAIEFNWISMLLEHRDFHFLIHFHLPSTFPKEKPQITLQSVYHMTSQGTLYKEVLDDTPYSPRWQIILMVDKLLTYIMENAVQKFQANSMKNRF
B4: CfBRCC36 (enzyme, C. floridanus, UniProt E2AXC7 1-253, looked up)
chain: B3 chain 1
notes: BRCC36 of Camponotus floridanus, residues 1-253; The crystal of PDB 5CW4 held seleno-methionine protein; also called C. floridanus BRCC36; B36; source: insect cells (MultiBac expression system), co-expressed with its partners, purified

How the values were obtained:
[1] = molecular target: the molecule itself; assay: SEC-MALS; complexes and subcomplexes purified from insect cells; size exclusion chromatography coupled to multi-angle light scattering (Figures S1B-E and S8E-G)
[2] = molecular target: the molecule itself; assay: crystal structure; CfBRCC36–KIAA0157ΔC, seleno-methionine-SAD, two heterodimers in the asymmetric unit, 2.55 Å

| Protein | stoichiometry N [1] | binding result [2] |
| --- | --- | --- |
| B1 | 2 | – |
| B2 | 2 | – |
| B3 | 2 | – |
| B4 | – | binds |
